Results from US20190175688A1 (DREXEL UNIVERSITY, published 2019).
Starred links: 1 amine or outer side, 2 acyl side, 3 side chain; linkers in the order of their positions; H or OH if unused. Positions of bridges follow the written chain, without caps; N, C: chain ends. Non-standard residues stand in square brackets, D forms with d. No end group written: not given here. X2 = (2S,4S)‑4‑(4-ferrocenyl-1H-1,2,3-triazol-1-yl)pyrrolidine‑2‑carboxylic acid, O=C([C@@H]1C[C@H](n2cc(-[c-]3cccc3)nn2)CN1[*:1])[*:2].[Fe+2].c1cc[cH-]c1; X3 = (2S,4S)‑4‑(4-ferrocenyl-1H-1,2,3-triazol-1-yl)proline, O=C([C@@H]1C[C@H](n2cc(-[c-]3cccc3)nn2)CN1[*:1])[*:2].[Fe+2].c1cc[cH-]c1; Pro(cis-4-Trz(4-CH2CH2Ph)) = O=C(O)[C@@H]1C[C@H](n2cc(CCc3ccccc3)nn2)CN1; Bta = N[C@@H](Cc1csc2ccccc12)C(=O)O; Gly(cPr) = N[C@H](C(=O)O)C1CC1; Nle = CCCC[C@H](N)C(=O)O; Orn = NCCC[C@H](N)C(=O)O; Dab = NCC[C@H](N)C(=O)O

Columns and labels:
[1] = molecular target: T1, HIV-1 YU-2 gp120 (wild-type gp120YU-2, monomeric) (HIV-1 (YU-2), UniProt P35961 32-498); test: SPR competition, sCD4 inhibition: inhibition of gp120 binding to immobilized sCD4
T1 construct: domain: gp120; only gp120 stood in the assay

[2] = molecular target: T1, HIV-1 YU-2 gp120 (wild-type gp120YU-2, …); test: SPR competition, 17b inhibition: inhibition of gp120 binding to immobilized mAb 17b
[3] = molecular target: T1, HIV-1 YU-2 gp120 (wild-type gp120YU-2, …); test: SPR competition binding assay on gp120
[4] = molecular target: T1, HIV-1 YU-2 gp120 (wild-type gp120YU-2, …); test: SPR competition on gp120; which of sCD4 or 17b is not said
[5] = molecular target: T1, HIV-1 YU-2 gp120 (wild-type gp120YU-2, …); test: SPR competition (Biacore 3000): 250 nM gp120 YU-2 with increasing peptide over immobilised mAb 17b; inhibition of mAb 17b binding to gp120
[6] = molecular target: T1, HIV-1 YU-2 gp120 (wild-type gp120YU-2, …); test: SPR competition (Biacore 3000): 250 nM gp120 YU-2 with increasing peptide over immobilised sCD4; inhibition of CD4 binding to gp120
[7] = molecular target: T1, HIV-1 YU-2 gp120 (wild-type gp120YU-2, …); test: SPR competition: fixed 250 nM HIV-1 YU-2 gp120 with increasing peptide passed over immobilized mAb 17b; inhibition of gp120 binding to 17b
[8] = molecular target: T1, HIV-1 YU-2 gp120 (wild-type gp120YU-2, …); test: >
[9] = molecular target: T1, HIV-1 YU-2 gp120 (wild-type gp120YU-2, …); test: SPR competition: fixed 250 nM HIV-1 YU-2 gp120 with increasing peptide passed over immobilized sCD4; inhibition of gp120 binding to sCD4
[10] = molecular target: T2, HIV-1 JR-FL envelope (gp120) on JR-FL pseudotyped virus (HIV-1 (JR-FL)); test: cell-based or functional assay
[11] = molecular target: T2, HIV-1 JR-FL envelope (gp120) on JR-FL …; test: cell-based or functional assay; remark: listed apart in the source
[12] = molecular target: HIV-1 BaL.01 envelope on BaL.01 pseudotyped virus (HIV-1 (BaL.01)); test: cell-based or functional assay
[13] = molecular target: T1, HIV-1 YU-2 gp120 (wild-type gp120YU-2, …); test: SPR competition (Biacore 3000): 250 nM gp120 YU-2 with increasing peptide over immobilised mAb 17b
[14] = molecular target: T1, HIV-1 YU-2 gp120 (wild-type gp120YU-2, …); test: SPR competition: fixed 250 nM HIV-1 YU-2 gp120 with increasing peptide passed over immobilized sCD4; inhibition of gp120 binding to sCD4; remark: listed apart in the source
[15] = molecular target: T1, HIV-1 YU-2 gp120 (wild-type gp120YU-2, …); test: SPR competition (Biacore 3000): 250 nM gp120 YU-2 with increasing peptide over immobilised sCD4
[16] = molecular target: T1, HIV-1 YU-2 gp120 (wild-type gp120YU-2, …); test: SPR competition: fixed 250 nM HIV-1 YU-2 gp120 with increasing peptide passed over immobilized sCD4; inhibition of gp120 binding to sCD4; remark: listed apart in the source
[17] = molecular target: T1, HIV-1 YU-2 gp120 (wild-type gp120YU-2, …); test: SPR competition: fixed 250 nM HIV-1 YU-2 gp120 with increasing peptide passed over immobilized mAb 17b; inhibition of gp120 binding to 17b; remark: listed apart in the source

Row | Binder | IC50 [1] [nM] | IC50 [2] [nM] | IC50, HIV-1 infection inhibition, Bal.01 pseudotyped virus [12] [nM] | also measured
1 | DNI[Pro(cis-4-Trz(4-CH2CH2Ph))]W[Dab]-NH2 (lactam 1-6; N-terminus assumed; SMILES CC[C@H](C)[C@@H]1NC(=O)[C@H](CC(N)=O)NC(=O)[C@@H](N)CC(=O)NCC[C@@H](C(N)=O)NC(=O)[C@H](Cc2c[nH]c3ccccc23)NC(=O)[C@@H]2C[C@H](n3cc(CCc4ccccc4)nn3)CN2C1=O) [AAR032] | 500 | 400 |  | fold improvement vs AAR031 [3]: ~10 fold
2 | IENI[Pro(cis-4-Trz(4-CH2CH2Ph))]WK-NH2 (lactam 2-7; N-terminus assumed; SMILES CC[C@H](C)[C@H](N)C(=O)N[C@H]1CCC(=O)NCCCC[C@@H](C(N)=O)NC(=O)[C@H](Cc2c[nH]c3ccccc23)NC(=O)[C@@H]2C[C@H](n3cc(CCc4ccccc4)nn3)CN2C(=O)[C@H]([C@@H](C)CC)NC(=O)[C@H](CC(N)=O)NC1=O, Cyclic peptide triazole; also called cyclic heptapeptide AAR024) [AAR024] |  |  |  | fold more active than the linear AAR024A [4]: > 40 fold; IC50 [5]: 269 nM; IC50 [6]: 138 nM
3 | IENI[Pro(cis-4-Trz(4-CH2CH2Ph))]WK-NH2 (N-terminus assumed; SMILES CC[C@H](C)[C@H](N)C(=O)N[C@@H](CCC(=O)O)C(=O)N[C@@H](CC(N)=O)C(=O)N[C@H](C(=O)N1C[C@@H](n2cc(CCc3ccccc3)nn2)C[C@H]1C(=O)N[C@@H](Cc1c[nH]c2ccccc12)C(=O)N[C@@H](CCCCN)C(N)=O)[C@@H](C)CC, Acyclic (linear) counterpart of AAR024; also called acyclic analogue of AAR024; linear AAR024A) [AAR024A] | 7890 | 11300 |  | IC50 [7]: 11300 nM; fold less active than AAR024 [8]: 50 fold; IC50 [9]: 7890 nM
4 | DNI[X2]WK-NH2 (lactam 1-6, Ferrocenyl analogue of AAR029) [AAR029b] | 32 | 35 | 210 | gp120 shedding EC50 (JR-FL pseudotyped virus, Western blot densitometry of supernatant) [10]: 316 nM; IC50, HIV-1 infection inhibition, JR-FL pseudotyped virus [11]: 190 nM
5 | ENNI[Pro(cis-4-Trz(4-CH2CH2Ph))]WK-NH2 (lactam 1-7; N-terminus assumed; SMILES CC[C@H](C)[C@@H]1NC(=O)[C@H](CC(N)=O)NC(=O)[C@H](CC(N)=O)NC(=O)[C@@H](N)CCC(=O)NCCCC[C@@H](C(N)=O)NC(=O)[C@H](Cc2c[nH]c3ccccc23)NC(=O)[C@@H]2C[C@H](n3cc(CCc4ccccc4)nn3)CN2C1=O, Cyclic peptide triazole) [AAR026] | 541 |  |  | IC50 [13]: 384 nM; IC50 [14]: 541 nM; IC50 [15]: 540 nM
6 | DN[Nle][X2]WK-NH2 (lactam 1-6) [AAR036] | ~2000 | ~2000 |  | 
7 | DNI[X2][Bta]K-NH2 (lactam 1-6) [AAR029E] | ~20 | ~20 | 26 | 
8 | IENI[X3]WK-NH2 (lactam 2-7, Ferrocenyl analogue of AAR024) [AAR024b] | 40 | 37.6 | 650 | IC50, HIV-1 infection inhibition, JR-FL pseudotyped virus [11]: 603 nM
9 | DNI[Pro(cis-4-Trz(4-CH2CH2Ph))]WK-NH2 (lactam 1-6, Cyclic hexapeptide triazole; also called minimized hexapeptide AAR029; macrocycle AAR029) [AAR029] |  |  | 2020 | IC50 [13]: 96 nM; fold more active than AAR029A [4]: > 200 fold; IC50, HIV-1 infection inhibition, JR-FL pseudotyped virus [11]: 2330 nM; fold enhanced activity vs AAR029b [3]: ~2 fold; IC50 [16]: 85.2 nM; IC50 [15]: 85 nM; IC50 [17]: 95.5 nM
10 | DNI[(2S,4S)‑4‑(4-(4-ethylphenyl)-1H-1,2,3-triazol-1-yl)pyrrolidine‑2‑carboxylic acid]WK-NH2 (lactam 1-6) [AAR029H] | ~318 | ~245 | ~1900 | 
11 | DNI[Pro(cis-4-Trz(4-CH2CH2Ph))]W[Orn]-NH2 (lactam 1-6; N-terminus assumed; SMILES CC[C@H](C)[C@@H]1NC(=O)[C@H](CC(N)=O)NC(=O)[C@@H](N)CC(=O)NCCC[C@@H](C(N)=O)NC(=O)[C@H](Cc2c[nH]c3ccccc23)NC(=O)[C@@H]2C[C@H](n3cc(CCc4ccccc4)nn3)CN2C1=O) [AAR031] | 5700 | 3900 |  | 
12 | ENI[Pro(cis-4-Trz(4-CH2CH2Ph))]W[Dab]-NH2 (lactam 1-6, also called macrocycle AAR030) [AAR030] | > 20000 | > 20000 |  | 
13 | DNI[(2S,4S)‑4‑(4-(adamantan-2-yl)-1H-1,2,3-triazol-1-yl)pyrrolidine‑2‑carboxylic acid]WK-NH2 (lactam 1-6) [AAR029F] | ~200 | ~200 | ~1300 | 
14 | DN[Gly(cPr)][X2]WK-NH2 (lactam 1-6) [AAR042] | ~2000 | ~2000 |  | 
